Our source for the self-aminoacylation values is the supplement of paper PMC9233669.

For one series, the system named is biotinyl-Phe-oxazolone. In words: self-aminoacylation, catalytic enhancement (BFO) (fold over background); higher = more active; k-Seq, kA / k0A0; sequences stand for … in GGGAAUGGAUCCACAUCUACGAAUUC…UUCACUGCAGACUUGACGAAGCUG
In a few lines: (§1)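 Mutagenized RNA pools (0.43 μM; 21-nt variable region) were treated with 2–1250 μM of each biotinyl-aminoacyl-oxazolone. Conditions were 50 μL HEPES/NaCl/KCl/MgCl2/CaCl2 buffer, 5% acetonitrile, pH 6.9–7.0, room temperature, 90 minutes. Catalytic enhancement, the median kA relative to the uncatalyzed rate, was derived from streptavidin capture, qPCR and Illumina sequencing.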

The test system of another series is biotinyl-Met-oxazolone. In words: self-aminoacylation, catalytic enhancement (BMO) (fold over background); higher = more active; k-Seq, kA / k0A0; sequences stand for … in GGGAAUGGAUCCACAUCUACGAAUUC…UUCACUGCAGACUUGACGAAGCUG
Put shortly: as §1

The next series deals with biotinyl-Ile-oxazolone. In words: self-aminoacylation, catalytic enhancement (BIO) (fold over background); higher = more active; k-Seq, kA / k0A0; sequences stand for … in GGGAAUGGAUCCACAUCUACGAAUUC…UUCACUGCAGACUUGACGAAGCUG
In a few lines: as §1

Another series deals with biotinyl-Val-oxazolone. In words: self-aminoacylation, catalytic enhancement (BVO) (fold over background); higher = more active; k-Seq, kA / k0A0; sequences stand for … in GGGAAUGGAUCCACAUCUACGAAUUC…UUCACUGCAGACUUGACGAAGCUG
Put shortly: as §1

A further series deals with biotinyl-Leu-oxazolone. In words: self-aminoacylation, catalytic enhancement (BLO) (fold over background); higher = more active; k-Seq, kA / k0A0; sequences stand for … in GGGAAUGGAUCCACAUCUACGAAUUC…UUCACUGCAGACUUGACGAAGCUG
In a few lines: as §1

The next series has as its system biotinyl-Trp-oxazolone. In words: self-aminoacylation, catalytic enhancement (BWO) (fold over background); higher = more active; k-Seq, kA / k0A0; sequences stand for … in GGGAAUGGAUCCACAUCUACGAAUUC…UUCACUGCAGACUUGACGAAGCUG
In a few lines:
as §1

Variants at the floor of the assay were thinned out.

Regarding “CUACACUUCAAGCAAUGGGUC [Fam1B.1 aminoacylation ribozyme variant]”, the self-aminoacylation in the series on biotinyl-Phe-oxazolone worked out at 0.544; with biotinyl-Met-oxazolone, 0.494; in the series on biotinyl-Ile-oxazolone, 0.65; in the series with biotinyl-Val-oxazolone it was 0.536; with biotinyl-Leu-oxazolone, 0.542; in the series on biotinyl-Trp-oxazolone, 0.47.
As to “AUUACCCCGGUCAUCGAGGGA [Fam2.1 aminoacylation ribozyme variant]”, the self-aminoacylation with biotinyl-Phe-oxazolone was found to be 2.68; in the series with biotinyl-Met-oxazolone, 1.21; in the series with biotinyl-Ile-oxazolone, 1.15; in the series on biotinyl-Val-oxazolone, 1.93; in the series on biotinyl-Leu-oxazolone, 1.07; with biotinyl-Trp-oxazolone it was 1.67.
With “CCAAACCUCAAGCAAUCGGUC [Fam1B.1 aminoacylation ribozyme variant]”, the self-aminoacylation with biotinyl-Phe-oxazolone stood at 1.54; with biotinyl-Met-oxazolone, 1.12; in the series on biotinyl-Ile-oxazolone it was 1.35; with biotinyl-Val-oxazolone, 1.29; in the series on biotinyl-Leu-oxazolone, 1.27; with biotinyl-Trp-oxazolone, 1.22.
For the sequence “AAUACCCUGGUGAUCGAGUGA [Fam2.1 aminoacylation ribozyme variant]”, the self-aminoacylation in the series with biotinyl-Phe-oxazolone is 13.1; in the series with biotinyl-Met-oxazolone it was 5.35; in the series with biotinyl-Ile-oxazolone, 3.23; in the series with biotinyl-Val-oxazolone, 3.02; in the series with biotinyl-Leu-oxazolone, 6.6; in the series with biotinyl-Trp-oxazolone it was 6.66.
For “AAGUUUCUUAAUAGUCGCAAG [Fam3.1 aminoacylation ribozyme variant]”, the self-aminoacylation was determined as 3.21 with biotinyl-Phe-oxazolone; 1.56 in the series on biotinyl-Met-oxazolone; 1.95 in the series with biotinyl-Ile-oxazolone; 1.69 in the series with biotinyl-Val-oxazolone; 1.92 in the series on biotinyl-Leu-oxazolone; 1.66 in the series with biotinyl-Trp-oxazolone.
“AUUACCCUGGUCGUCGAGUCA [Fam2.1 aminoacylation ribozyme variant]”: the self-aminoacylation amounted to 0.524 with biotinyl-Phe-oxazolone; 0.904 in the series with biotinyl-Met-oxazolone; 1.05 in the series with biotinyl-Ile-oxazolone; 1.05 in the series on biotinyl-Val-oxazolone; 0.956 in the series with biotinyl-Leu-oxazolone; 0.444 in the series on biotinyl-Trp-oxazolone.
As for “AUGCUUCAAACAAUCGGUCUG [Fam1A.1 aminoacylation ribozyme variant]”, the self-aminoacylation with biotinyl-Phe-oxazolone is 129; in the series on biotinyl-Met-oxazolone, 2.1; in the series on biotinyl-Ile-oxazolone, 2.25; with biotinyl-Val-oxazolone, 1.99; in the series on biotinyl-Leu-oxazolone, 3.36; with biotinyl-Trp-oxazolone it was 50.6.
For the sequence “AUUACCCUGGUCUUCGAGUGG [Fam2.1 aminoacylation ribozyme variant]”, the self-aminoacylation in the series with biotinyl-Phe-oxazolone amounted to 4.91; in the series with biotinyl-Met-oxazolone it was 1.34; in the series with biotinyl-Ile-oxazolone, 0.992; in the series with biotinyl-Val-oxazolone, 1.07; in the series with biotinyl-Leu-oxazolone it was 1.69; in the series on biotinyl-Trp-oxazolone, 0.855.
Turning to “CCACGUUUCAAGCAAUCGGUC [Fam1B.1 aminoacylation ribozyme variant]”, the self-aminoacylation came to 77.2 with biotinyl-Phe-oxazolone; 2.85 with biotinyl-Met-oxazolone; 2.68 in the series with biotinyl-Ile-oxazolone; 3.47 in the series with biotinyl-Val-oxazolone; 3.36 with biotinyl-Leu-oxazolone; 37.6 in the series on biotinyl-Trp-oxazolone.
In the case of “CUACUUCAUACAAUCUGUCUG [Fam1A.1 aminoacylation ribozyme variant]”, the self-aminoacylation with biotinyl-Phe-oxazolone worked out at 0.66; in the series with biotinyl-Met-oxazolone it was 0.64; in the series with biotinyl-Ile-oxazolone, 0.668; in the series on biotinyl-Val-oxazolone, 0.682; in the series on biotinyl-Leu-oxazolone, 0.566; with biotinyl-Trp-oxazolone, 0.424.
Regarding “AUGCACCUAGGUCAUCGAGUG [Fam2.2 aminoacylation ribozyme variant]”, the self-aminoacylation in the series on biotinyl-Phe-oxazolone is 4.83; in the series with biotinyl-Met-oxazolone, 3.33; in the series on biotinyl-Ile-oxazolone, 2.61; with biotinyl-Val-oxazolone, 2.56; in the series on biotinyl-Leu-oxazolone, 3.96; in the series on biotinyl-Trp-oxazolone it was 3.75.
For the sequence “AUCACCCUCGUCAUCGAGUGA [Fam2.1 aminoacylation ribozyme variant]”, the self-aminoacylation was determined as 19.7 with biotinyl-Phe-oxazolone; 3.54 in the series with biotinyl-Met-oxazolone; 2.12 in the series with biotinyl-Ile-oxazolone; 2.36 with biotinyl-Val-oxazolone; 3.13 with biotinyl-Leu-oxazolone; 3.31 with biotinyl-Trp-oxazolone.
Take “AAGUUCGCUAAUAAUCGCAAG [Fam3.1 aminoacylation ribozyme variant]”: the self-aminoacylation in the series with biotinyl-Phe-oxazolone amounted to 1.54; in the series on biotinyl-Met-oxazolone, 1.24; in the series on biotinyl-Ile-oxazolone it was 1.24; in the series on biotinyl-Val-oxazolone, 1.31; in the series with biotinyl-Leu-oxazolone it was 1.02; in the series with biotinyl-Trp-oxazolone, 0.758.
For the sequence “AUUAUCCUAGGUCAUCGGGUG [Fam2.2 aminoacylation ribozyme variant]”, the self-aminoacylation is 54.6 in the series on biotinyl-Phe-oxazolone; 9.84 with biotinyl-Met-oxazolone; 6.74 with biotinyl-Ile-oxazolone; 5.98 in the series with biotinyl-Val-oxazolone; 14.5 in the series on biotinyl-Leu-oxazolone; 9.09 in the series on biotinyl-Trp-oxazolone.
On to “AAGUUUGCUAAUAGUACCAAG [Fam3.1 aminoacylation ribozyme variant]”, for which the self-aminoacylation with biotinyl-Phe-oxazolone is 1.41; in the series with biotinyl-Met-oxazolone it was 1.22; in the series on biotinyl-Ile-oxazolone, 1.14; in the series with biotinyl-Val-oxazolone, 1.15; in the series with biotinyl-Leu-oxazolone it was 0.791; in the series on biotinyl-Trp-oxazolone, 0.838.
On to “CUACUUCACACAAUCGGUCUA [Fam1A.1 aminoacylation ribozyme variant]”, for which the self-aminoacylation in the series on biotinyl-Phe-oxazolone was found to be 0.822; with biotinyl-Met-oxazolone, 0.626; in the series on biotinyl-Ile-oxazolone, 0.72; in the series with biotinyl-Val-oxazolone it was 0.834; in the series on biotinyl-Leu-oxazolone it was 0.802; in the series with biotinyl-Trp-oxazolone, 0.777.
As to “AUUCACCUAGGCCACCGGGUG [Fam2.2 aminoacylation ribozyme variant]”, the self-aminoacylation with biotinyl-Phe-oxazolone was 13.6; in the series with biotinyl-Met-oxazolone, 5.04; with biotinyl-Ile-oxazolone, 3.83; with biotinyl-Val-oxazolone it was 3.27; with biotinyl-Leu-oxazolone, 6.51; in the series with biotinyl-Trp-oxazolone, 4.16.
As for “AUACACCUAGCUCAUCGGGUG [Fam2.2 aminoacylation ribozyme variant]”, the self-aminoacylation in the series on biotinyl-Phe-oxazolone was found to be 4.61; in the series with biotinyl-Met-oxazolone, 2.23; with biotinyl-Ile-oxazolone, 1.9; in the series on biotinyl-Val-oxazolone it was 2.21; in the series with biotinyl-Leu-oxazolone it was 1.91; in the series on biotinyl-Trp-oxazolone, 1.24.
With “CCAAACUUCAAGCAAUUGGUC [Fam1B.1 aminoacylation ribozyme variant]”, the self-aminoacylation in the series on biotinyl-Phe-oxazolone amounted to 1.1; in the series on biotinyl-Met-oxazolone it was 0.81; in the series with biotinyl-Ile-oxazolone, 0.759; with biotinyl-Val-oxazolone, 0.828; in the series on biotinyl-Leu-oxazolone, 0.767; in the series with biotinyl-Trp-oxazolone, 0.886.
For “CUACAUCAAAAAAUCGGUCUG [Fam1A.1 aminoacylation ribozyme variant]”, the self-aminoacylation turned out to be 1.35 in the series on biotinyl-Phe-oxazolone; 0.712 in the series on biotinyl-Met-oxazolone; 0.831 with biotinyl-Ile-oxazolone; 0.745 with biotinyl-Val-oxazolone; 0.633 in the series on biotinyl-Leu-oxazolone; 0.753 in the series with biotinyl-Trp-oxazolone.
For the sequence “AUGCACCUCGGUCAUCGGGUG [Fam2.2 aminoacylation ribozyme variant]”, the self-aminoacylation with biotinyl-Phe-oxazolone came to 32.6; in the series with biotinyl-Met-oxazolone it was 5.38; in the series with biotinyl-Ile-oxazolone it was 4.1; in the series on biotinyl-Val-oxazolone it was 3.86; in the series with biotinyl-Leu-oxazolone, 6.47; in the series on biotinyl-Trp-oxazolone, 6.81.
